These results are taken from patent US20240344241A1, “PROTEINACEOUS MOLECULES AND USES THEREFOR” (THE UNIVERSITY OF QUEENSLAND, priority 2021, published 2024).

Assay [1] has as its target T1, recombinant human matriptase (human), Q9Y5Y6.
T1 chain: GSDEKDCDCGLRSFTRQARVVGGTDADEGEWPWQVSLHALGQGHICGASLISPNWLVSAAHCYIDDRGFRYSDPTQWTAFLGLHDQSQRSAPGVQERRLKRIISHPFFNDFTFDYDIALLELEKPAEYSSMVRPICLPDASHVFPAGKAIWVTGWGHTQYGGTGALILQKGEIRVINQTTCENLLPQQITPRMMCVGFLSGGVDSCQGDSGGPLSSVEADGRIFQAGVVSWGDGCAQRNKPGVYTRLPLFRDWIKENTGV
The experiment in a line: competitive inhibition assay with peptide substrate.

The target in assay [2] is human cationic trypsin (human), P07477. Described as above.
The target of assay [3] is T2, kallikrein-related peptidase 4 (KLK4), Q9Y5K2.
T2 chain: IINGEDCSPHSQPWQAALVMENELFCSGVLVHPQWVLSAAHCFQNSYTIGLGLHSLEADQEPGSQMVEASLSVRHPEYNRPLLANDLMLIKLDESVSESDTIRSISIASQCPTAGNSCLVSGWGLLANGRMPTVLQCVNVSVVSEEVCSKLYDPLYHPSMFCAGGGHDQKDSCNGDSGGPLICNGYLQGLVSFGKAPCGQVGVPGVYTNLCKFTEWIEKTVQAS
The assay is described as above.

For assay [4], the target named is T3, human β-factor XIIa (human), P00748.
T3 chain 1: NGPLSCGQR
T3 chain 2: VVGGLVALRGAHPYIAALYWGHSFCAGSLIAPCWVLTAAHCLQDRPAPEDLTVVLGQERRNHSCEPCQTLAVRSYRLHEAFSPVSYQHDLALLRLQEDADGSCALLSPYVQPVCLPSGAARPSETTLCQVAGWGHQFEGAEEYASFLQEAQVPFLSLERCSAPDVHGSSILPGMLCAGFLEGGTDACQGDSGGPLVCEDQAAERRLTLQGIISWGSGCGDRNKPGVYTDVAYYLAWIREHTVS
The assay is described as above.

Assay [5] shares this target. The experiment in a line: SPR (Biacore T200), biotinylated human β-FXIIa captured on chip, peptide as analyte, 1:1 model.
Assay [6] has the same target. The assay is described as above.
Assay [7] shares this target. The experiment in a line: competitive protease inhibition assay, Ac-QRFR-pNA substrate, Morrison Ki.
Assay [8] deals with bovine trypsin (bovine), P00760. Put plainly: SPR, bovine trypsin.
Chain of bovine trypsin (bovine), P00760 (P00760 24-246): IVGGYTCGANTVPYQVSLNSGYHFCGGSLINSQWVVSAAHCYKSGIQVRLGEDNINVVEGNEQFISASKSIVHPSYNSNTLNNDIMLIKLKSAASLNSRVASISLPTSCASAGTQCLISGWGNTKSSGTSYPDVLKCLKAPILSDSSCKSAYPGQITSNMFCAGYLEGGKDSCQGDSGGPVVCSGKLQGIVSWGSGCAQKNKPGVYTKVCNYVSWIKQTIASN
The target in assay [9] is T3, human β-factor XIIa (human), P00748. The experiment in a line: mRNA display affinity selection on bead-immobilised biotinylated human β-FXIIa, NGS; share of the sequence in the recovered library; peptide displayed as acyclic mRNA fusion.
For assay [10], the target named is T1, recombinant human matriptase (human), …. The experiment in a line: competitive protease inhibition assay (selectivity panel), human matriptase, Boc-QAR-MCA.
Assay [11] concerns the target human cationic trypsin (human), P07477. Put plainly: competitive protease inhibition assay (selectivity panel), human trypsin, Boc-VPR-MCA.
The target in assay [12] is T4, FXIIa in human plasma (generated by kaolin activation of FXII in aPTT assays) (human), P00748.
T4 chain: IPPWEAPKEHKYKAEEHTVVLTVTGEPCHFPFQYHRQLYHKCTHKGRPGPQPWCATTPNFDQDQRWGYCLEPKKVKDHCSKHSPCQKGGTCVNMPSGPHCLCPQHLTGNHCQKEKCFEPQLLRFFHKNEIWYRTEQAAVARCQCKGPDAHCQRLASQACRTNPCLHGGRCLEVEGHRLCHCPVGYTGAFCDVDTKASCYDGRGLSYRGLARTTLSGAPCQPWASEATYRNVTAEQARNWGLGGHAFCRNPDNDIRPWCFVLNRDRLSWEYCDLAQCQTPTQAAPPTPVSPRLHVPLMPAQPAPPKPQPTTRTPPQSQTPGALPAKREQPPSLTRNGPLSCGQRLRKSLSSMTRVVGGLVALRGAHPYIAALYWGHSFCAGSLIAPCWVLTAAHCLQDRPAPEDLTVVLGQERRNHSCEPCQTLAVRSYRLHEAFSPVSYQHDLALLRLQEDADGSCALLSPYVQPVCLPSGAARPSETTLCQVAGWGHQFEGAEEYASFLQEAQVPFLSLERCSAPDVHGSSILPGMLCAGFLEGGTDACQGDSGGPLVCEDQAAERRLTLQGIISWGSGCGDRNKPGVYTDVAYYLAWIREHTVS
The experiment in a line: cell-based or functional assay.

Assay [13] addresses T3, human β-factor XIIa (human), P00748. The experiment in a line: mRNA display affinity selection on bead-immobilised biotinylated human β-FXIIa, NGS; share of the sequence in the recovered library.
Assay [14] shares this target. Put plainly: competitive protease inhibition assay, ratio of Ki values.
The target is the same in assay [15]. Put plainly: competitive protease inhibition assay, 0.5 nM FXIIa, Boc-QGR-MCA substrate.

Like-named read-outs stand apart in the source and are kept apart here. Ends that are not written are not given here. Bounds are passed on as bounds.

As to RVCPRILKKCRRDSDCPGACICRGNGYCG (modifications not checked) [acyclic MCoTI-II variant M], the inhibition constant (Ki) (as a rule, a dissociation constant, usually derived from enzyme kinetics or from competition with a known ligand) in [1] stood at 0.4 nM; in [2], 0.4 nM; in assay [3] it was 0.07 nM; in [4] it was 3.3 nM.

With DGGVCPRVGWRCRRDSDCPGACICYPTKWCGSGS (modifications not checked) [MCoFx4 acyclic], the dissociation constant (Kd) (commonly the equilibrium constant for the complex coming apart) in assay [5] was determined as 74 nM; in assay [6] it was 73.8 nM; in assay [8], 15.1 nM. Also, the Ki in assay [7] is 17 nM. For the same molecule, the Population (%) in assay [9] is 2.3%.

Take DGGVCPRVGWRCRRDSDCPGACICYPTKWCGSGS (modifications not checked) [MCoFx4 cyclic]: the results for the Kd in assay [5], in assay [6] and in assay [8] were 14 nM, 14.4 nM and 4.09 nM, respectively. In assay [7], this molecule came in with a Ki of 5.5 nM.

Consider DGGICPRIGRLCRRDSDCPGACICRGNGYCGSGS (modifications not checked) [cMCoTI-fxL1], for which the Ki in [10] is 2210 nM; in assay [11] it was 996 nM; in [7], 0.69 nM. The EC2× (inhibitor concentration that doubles the clotting time), aPTT assay in human plasma in [12] is 500 nM.

DGGRCCGGYLVCRRDSDCPGACICVFKKHCGSGS (modifications not checked) [MCoFx5 acyclic] yielded a Kd in [5] of 23 nM. Besides, the Ki in [7] stood at 106 nM. The molecule further had a Population (%) in assay [9] of 0.8%.

For the molecule DGGRCCGGYLVCRRDSDCPGACICVFKKHCGSGS (modifications not checked) [MCoFx5 cyclic], the Kd is 82 nM in [5] and 81.8 nM in [6]. In assay [7], this molecule displayed a Ki of 207 nM.

Turning to DGGICPRIGRLCRRDSDCPGACICRATRFCGSGY (modifications not checked) [MCoFx1 acyclic], the dissociation constant Kd in assay [5] came out at 1.9 nM; in assay [6], 1.89 nM; in [8] it was 59.6 nM. This molecule showed a Ki in assay [7] of 0.73 nM.

In the case of DGGVCPKILKKCRRDSDCPGACICRGNGYCGSGS (modifications not checked) [MCoTI-II (Momordica cochinchinensis trypsin inhibitor-II), chemically synthesized, cyclic], the values for the equilibrium dissociation constant (Kd) in [5] and in assay [8] were 58 nM and less than 0.1 nM, respectively.

Consider DGGICPRILVYCRRDSDCPGACICIRRTYCGSGS (modifications not checked) [MCoFx2 acyclic], for which the equilibrium dissociation constant (Kd) in assay [5] is 45 nM; in assay [6], 45.4 nM; in assay [8] it was less than 0.1 nM. Also, the Ki in [7] was 73 nM. The same molecule gave a Population (%) in assay [9] of 19.8%.

For DGGICPRILVYCRRDSDCPGACICIRRTYCGSGS (modifications not checked) [MCoFx2 cyclic], the values for the dissociation constant (Kd) in assay [6] and in assay [8] were 10 nM and less than 0.1 nM, respectively. The molecule further registered a Ki in [7] of 12 nM.

In assay [13], MDGGICPRIGRLCRRDSDCPGACICRATRFCGSGSGS (modifications not checked) [MCoFx1, mRNA display selected sequence (parent of the saturation mutagenesis library)] came in with a Population (%) of 20.7%.

On to GGICPRIGRLCRRDSDCPGACICRATGFCGSGSD (not fully specified (bridges); cysteine pairing not given here) [Cyclic [R27G]MCoFx7], for which the fold loss in activity against cyclic MCoFx7 in [14] turned out to be 3.2 fold. In assay [15], this molecule yielded an inhibition constant Ki of 0.21 nM.

Take GGICPRIGRLCRRDSDCPGACICRATHFCGSGSD (not fully specified (bridges); cysteine pairing not given here) [Cyclic [R27H]MCoFx7]: the fold loss in activity against cyclic MCoFx7 in assay [14] worked out at 2 fold. Besides, the Ki in assay [15] came out at 0.12 nM.

For GGICPRIGRLCVRDSDCPGACICRATRFCGSGSD (not fully specified (bridges); cysteine pairing not given here) [Cyclic [R12V]MCoFx7], the inhibition constant Ki in assay [15] came out at 0.069 nM.

With GGICPRIGRLCRKDSDCPGACICRATRFCGSGSD (not fully specified (bridges); cysteine pairing not given here) [Cyclic [R13K]MCoFx7], the Ki in assay [15] was determined as 0.068 nM.

In [15], GGICPRIGRLCRRDSDCPGACICRPTRFCGSGSD (not fully specified (bridges); cysteine pairing not given here) [Cyclic [A25P]MCoFx7] gave a Ki of 0.093 nM.

In assay [15], GGICPRIGRLCRRDSDCPGACICRATRFCGSGSP (not fully specified (bridges); cysteine pairing not given here) [Cyclic [D34P]MCoFx7] displayed a Ki of 0.091 nM.

Regarding GGICPRIGRLCRRDSDCPGACICRKTRFCGSGSD (not fully specified (bridges); cysteine pairing not given here) [Cyclic [A25K]MCoFx7], the Ki in assay [15] is 0.046 nM.

The molecule GGICPRIGRLCRRDSDCPGACICRATRFCGSGSD (modifications not checked) [Cyclic MCoFx7] had a Ki in [15] of 0.064 nM.

GGICPRIGRLCTRDSDCPGACICRATRFCGSGSD (not fully specified (bridges); cysteine pairing not given here) [Cyclic [R12T]MCoFx7] came in with an inhibitory constant (Ki) in assay [15] of 0.065 nM.

Consider GGICPRIGRLCERDSDCPGACICRATRFCGSGSD (not fully specified (bridges); cysteine pairing not given here) [Cyclic [R12E]MCoFx7], for which the fold weaker activity than cyclic MCoFx7 in assay [14] turned out to be 2 fold. The inhibitory constant (Ki) in assay [15] was 0.13 nM.

For DGGRCPRLLRWCRRDSDCPGACICARGGLCGSGS (modifications not checked) [MCoFx3 acyclic], the Kd in assay [5] came out at 167 nM; in assay [8] it was 2.39 nM. For the same molecule, in assay [7], the inhibition constant (Ki) is 525 nM. In [9], this molecule returned a Population (%) of 2.3%.

With DGGRCPRLLRWCRRDSDCPGACICARGGLCGSGS (modifications not checked) [MCoFx3 cyclic], the Kd in assay [5] was found to be 23 nM; in [6] it was 22.8 nM; in assay [8], 2.72 nM. The same molecule gave a Ki in assay [7] of 75 nM.
